Measured values published in the supplement of paper PMC10567573.

B1: C8orf76 (parent)
chain: LYLQLAICSSLQNLEKTIFCLQKL

Variants of: B1
Experiment: protein stability index of a GFP-peptide fusion (GPS, HEK-293T) (PSI 1-6); higher = more stable
Conditions: c terminus: a fixed tail appended
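Further: lentivirally expressed fusions sorted by FACS into six bins by GFP to DsRed ratio, PSI derived from sequencing read proportions per bin multiplied by bin number.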

Point of comparison: LELQLAICSSLQNLEKTIFCLQKL [Y2E], protein stability index 3.3. Against it:
- LYLQLAICSPLQNLEKTIFCLQKL [S10P] — lower, 2.52
- LYLQLAICSSLQNLEKTIYCLQKL [F19Y] — higher, 4.28
- LYLQLAICSSLQNLEKTIECLQKL [F19E] — lower, 1.81
- LYLQLAICSSLQNLETTIFCLQKL [K16T] — higher, 4.26
- LYLQLAICSSLQNLEKTIFCSQKL [L21S] — lower, 2.59
- LYLQLAICSSLQNLEKTIFVLQKL [C20V] — higher, 3.44
- LYLQLAICSSLQNLEKTIFCLQGL [K23G] — lower, 3.17
- LYLQLAIVSSLQNLEKTIFCLQKL [C8V] — higher, 3.6
- SYLQLAICSSLQNLEKTIFCLQKL [L1S] — higher, 3.44
- LYLQLAICSSLQNLEKTIFMLQKL [C20M] — lower, 1.94
- LYLQLAICSSLQNLEKTIFCLQIL [K23I] — lower, 2.72
- LYLQLAICSSLQNLEKTIFCLVKL [Q22V] — lower, 2.58
- LYLQLAICSSLQNLEKTQFCLQKL [I18Q] — lower, 2.44
- LYLQLLICSSLQNLEKTIFCLQKL [A6L] — lower, 2.52
- LYLQLAITSSLQNLEKTIFCLQKL [C8T] — lower, 2.71
- LYLQLGICSSLQNLEKTIFCLQKL [A6G] — lower, 1.73
- LYLQLAICSFLQNLEKTIFCLQKL [S10F] — higher, 4.67
- LYLQLAICSSLGNLEKTIFCLQKL [Q12G] — lower, 2.58
- LFLQLAICSSLQNLEKTIFCLQKL [Y2F] — lower, 2.5
- LYLQLAICSSLQNLEKTICCLQKL [F19C] — lower, 2.27
- LYPQLAICSSLQNLEKTIFCLQKL [L3P] — lower, 1.81
- LILQLAICSSLQNLEKTIFCLQKL [Y2I] — lower, 3.14
- LYLQLAICSSMQNLEKTIFCLQKL [L11M] — higher, 3.61
- LYLQLAICSSLQNLEKTILCLQKL [F19L] — lower, 3.21
- LYLMLAICSSLQNLEKTIFCLQKL [Q4M] — higher, 3.43
- LYLQHAICSSLQNLEKTIFCLQKL [L5H] — lower, 1.67
- LYLQLAISSSLQNLEKTIFCLQKL [C8S] — lower, 3.03
- LYLQLAICSSLQNLEKTIFILQKL [C20I] — lower, 2.15
- LYLQLQICSSLQNLEKTIFCLQKL [A6Q] — lower, 2.63
- LYLQLAICSSLQNLEKTIMCLQKL [F19M] — higher, 3.62
- LYLQLAHCSSLQNLEKTIFCLQKL [I7H] — lower, 2.71
- LYLQLAICSSLQNLEKTIFCLQRL [K23R] — higher, 3.49
- LYAQLAICSSLQNLEKTIFCLQKL [L3A] — higher, 3.31
- LYLQLAICSSLQNLEKTIFCLMKL [Q22M] — lower, 3.12
- LYLQLAICSSLQNLEKTIFCRQKL [L21R] — lower, 2.08
- LYLQLAICSSLQNLEKDIFCLQKL [T17D] — lower, 2.31
- LTLQLAICSSLQNLEKTIFCLQKL [Y2T] — lower, 2.08
- LYLQLAICSSLQNLEKTINCLQKL [F19N] — higher, 3.32
- LYLQLAICSSLQNLEKTIACLQKL [F19A] — lower, 2.89
- LYLQLAICSSLQFLEKTIFCLQKL [N13F] — lower, 2.51
- LYLQLAICSSLQNLEKLIFCLQKL [T17L] — higher, 4
- LYLQLAICSSLQNPEKTIFCLQKL [L14P] — lower, 2.32
- LYLQLAICSSLQNLEKTIFCLSKL [Q22S] — lower, 1.58
- LYLQLAICSSLPNLEKTIFCLQKL [Q12P] — lower, 2.52
- LYLQLPICSSLQNLEKTIFCLQKL [A6P] — lower, 2.9
- LYLQLAICSSLNNLEKTIFCLQKL [Q12N] — lower, 2.07
- NYLQLAICSSLQNLEKTIFCLQKL [L1N] — lower, 3.07
- LYLQLAICSSLQNLIKTIFCLQKL [E15I] — lower, 2.49
- LYLQLAICSSLTNLEKTIFCLQKL [Q12T] — higher, 4.52
- LYLQLAICSSTQNLEKTIFCLQKL [L11T] — lower, 1.82
- LYLQLAICSSLQNLEKYIFCLQKL [T17Y] — higher, 3.47
- LYLQLAICSSKQNLEKTIFCLQKL [L11K] — lower, 3.11
- LYLQLAICSSLQNLEKTYFCLQKL [I18Y] — lower, 2.94
- LYLQLAICSSLQNLEKTIFCLQKP [L24P] — higher, 4.07
- LYLQLAICSSLQNLEKTIFCLIKL [Q22I] — lower, 1.46
- LYLQLMICSSLQNLEKTIFCLQKL [A6M] — higher, 3.66
- LYLQLAICSSLQNLEKTHFCLQKL [I18H] — lower, 2.6
- LYLQLAICSSLQNLEKTLFCLQKL [I18L] — lower, 2.46
- LYLQLAICSSLQNLEITIFCLQKL [K16I] — lower, 2.44
- LYLQLAICSSLQNLEKTIFCLNKL [Q22N] — lower, 2.31
- LYLQLAICSSLQNGEKTIFCLQKL [L14G] — lower, 2.24
- LYLQLAICSSLQNLEKTFFCLQKL [I18F] — lower, 2.57
- LYLQLAICSSLVNLEKTIFCLQKL [Q12V] — lower, 2.3
- LYLQLWICSSLQNLEKTIFCLQKL [A6W] — lower, 1.73
- LYLQLAICSSLQNLEKTIFCLQKA [L24A] — lower, 2.13
- LYLQLAICSSLQNLEKTIFELQKL [C20E] — lower, 1.86
- LYLQLAICSSLQNLEKTIKCLQKL [F19K] — lower, 3.04
- LYLQLAICSSFQNLEKTIFCLQKL [L11F] — lower, 1.39
- LYLSLAICSSLQNLEKTIFCLQKL [Q4S] — higher, 4.32
- LYLQLAICSSLQNLEKTIFCDQKL [L21D] — lower, 2.09
- LYLQLAICSSLQNTEKTIFCLQKL [L14T] — lower, 1.65
- LYLQLAIRSSLQNLEKTIFCLQKL [C8R] — lower, 3.1
- LYLQLAICSSLQNLEKTIFCLQWL [K23W] — higher, 3.62
- LYLQLAICSSLQPLEKTIFCLQKL [N13P] — lower, 3.23
- LYLQLCICSSLQNLEKTIFCLQKL [A6C] — lower, 2.72
- LYLQLAICSSLQNLEKTIFPLQKL [C20P] — lower, 1.88
- LYLQLAICSSLQNLEKTEFCLQKL [I18E] — lower, 1.79
- LYLQLAICSSLQNLEKTIFCLQPL [K23P] — lower, 2.54
- LYLQLATCSSLQNLEKTIFCLQKL [I7T] — lower, 2.36
- LYLQLAICSSLQRLEKTIFCLQKL [N13R] — lower, 3.01
- LYLQLAICSSLQNLEKTIFCLQQL [K23Q] — higher, 4.24
- LYLQLAICSSLQNLEKTIFCCQKL [L21C] — lower, 2.88
- LRLQLAICSSLQNLEKTIFCLQKL [Y2R] — higher, 4.79
- LYLQLAIWSSLQNLEKTIFCLQKL [C8W] — lower, 2.12
- LYLQLTICSSLQNLEKTIFCLQKL [A6T] — lower, 3.04
- LYLQLAICSSLQNLEKTIFWLQKL [C20W] — lower, 2.66
- LYLQPAICSSLQNLEKTIFCLQKL [L5P] — lower, 2.23
- LYLQLAICSSLQNLEKTIFHLQKL [C20H] — higher, 3.83
- LYLQLAIESSLQNLEKTIFCLQKL [C8E] — higher, 3.54
- LYLQLVICSSLQNLEKTIFCLQKL [A6V] — lower, 1.62
- LYLQLAICSSLQNLEKTIFCLQLL [K23L] — lower, 2.27
- LYLQLAIYSSLQNLEKTIFCLQKL [C8Y] — lower, 2.62
- LKLQLAICSSLQNLEKTIFCLQKL [Y2K] — lower, 2.42
